Measurements reported in publication PMC10927774, “Mechanistic and biophysical characterization of polymyxin resistance response regulator PmrA in Acinetobacter baumannii” (Frontiers in Microbiology, 2024).

Target: the molecule itself
Experiment: SEC; full-length PmrA incubated with BeF3- and Mg2+ (5.3 mM BeSO4, 35 mM NaF, 7 mM MgCl2) to mimic phosphorylation; 25 mM Tris pH 8.0, 150 mM NaCl, 5% glycerol

B1: Acinetobacter baumannii PmrA full length (natural protein)
chain: MTKILMIEDDFMIAESTITLLQYHQFEVEWVNNGLDGLAQLAKTKFDLILLDLGLPMMDGMQVLKQIRQRAATPVLIISARDQLQNRVDGLNLGADDYLIKPYEFDELLARIHALLRRSGVEAQLASQDQLLESGDLVLNVEQHIATFKGQRIDLSNREWAILIPLMTHPNKIFSKANLEDKLYDFDSDVTSNTIEVYVHHLRAKLGKDFIRTIRGLGYRLGQS
notes: Response regulator PmrA of A. baumannii, UniProt E2FGC2; full length, printed as residues 1–244 in the methods, while the introduction places the DBD at 129–223; Cloned in pET28a; In one SEC run it was incubated with BeF3- and Mg2+ (aspartate phosphorylation mimic); this is treated as a condition of the assay, not as another molecule; also called PmrA FL; full-length PmrA; source: E. coli BL21 …
- stoichiometry N: 2
